{"source": "paper PMC10986958", "about": "(PLOS Pathogens, 2024)", "assay_in_all_cases": "ITC", "settings_in_all_cases": "both partners purified", "key": {"[1]": {"target": "T1, GABARAP (residues 1-117 of human GABARAP) (human, UniProt O95166 1-117)", "T1 sequence (O95166 whole entry, the tested form may be a part)": "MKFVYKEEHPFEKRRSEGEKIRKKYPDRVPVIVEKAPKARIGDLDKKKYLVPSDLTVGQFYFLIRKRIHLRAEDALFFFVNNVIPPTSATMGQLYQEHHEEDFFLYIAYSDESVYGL"}, "[2]": {"target": "LC3A (residues 1-121 of human LC3A) (human, UniProt Q9H492 1-121)"}, "[3]": {"target": "T2, GABARAPL1 (residues 1-117 of human GABARAPL1) (human, UniProt Q9H0R8 1-117)", "T2 construct": "also called GABARPL1", "T2 sequence (Q9H0R8 whole entry, the tested form may be a part)": "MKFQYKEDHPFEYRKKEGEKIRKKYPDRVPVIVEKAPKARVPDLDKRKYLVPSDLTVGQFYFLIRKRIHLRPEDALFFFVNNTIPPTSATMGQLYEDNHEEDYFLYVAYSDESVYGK"}, "[4]": {"target": "T3, LC3B (residues 1-125 of human LC3B) (human, UniProt Q9GZQ8 1-125)"}, "[5]": {"target": "T2, GABARAPL1 (residues 1-117 of human …)", "remark": "listed apart in the source"}, "[6]": {"target": "T3, LC3B (residues 1-125 of human LC3B)", "remark": "listed apart in the source"}, "[7]": {"target": "T1, GABARAP (residues 1-117 of human …)", "remark": "listed apart in the source"}}}
{"binder": "DYFPVISVDLQSGRR", "note": "[NSs1 (residues 2-16 of RVFV NSs)]", "values": [{"measurement": "Kd", "setting": "[1]", "value": "> 100", "unit": "µM"}, {"measurement": "Kd", "setting": "[2]", "value": "> 100", "unit": "µM"}]}
{"binder": "RLRFSDFYNVGEFPYRVGLG", "note": "[NSs2 (residues 53-72 of RVFV NSs)]", "values": [{"measurement": "Kd", "setting": "[1]", "value": "> 100", "unit": "µM"}, {"measurement": "Kd", "setting": "[2]", "value": "> 100", "unit": "µM"}]}
{"binder": "DVEMESEEESDDDGFVEVD", "note": "[NSs4 (residues 247-265 of RVFV NSs)]", "values": [{"measurement": "Kd", "setting": "[3]", "value": 0.49, "unit": "µM"}, {"measurement": "Kd", "setting": "[4]", "value": 0.6, "unit": "µM"}, {"measurement": "stoichiometry N", "setting": "[5]", "value": 1}, {"measurement": "stoichiometry N", "setting": "[6]", "value": 1}]}
{"binder": "GRNNWIPVIPPIPDVEMESEEE", "note": "[NSs3 (residues 234-255 of RVFV NSs)]", "values": [{"measurement": "Kd", "setting": "[7]", "value": 16, "unit": "µM"}, {"measurement": "stoichiometry N", "setting": "[1]", "value": 1}, {"measurement": "Kd", "setting": "[2]", "value": "> 100", "unit": "µM"}]}
